# B1: HA-dCENP-C(1264-1411) [Drosophila melanogaster] / GFP-LacI-dCENP-C [Drosophila melanogaster] (parent)
# chain 1: GPVVFSTPLRDEQEEASTKLMQWLRGVGDAPPSASMSDENASVSSANELIFCQVDGIDYAFYNTKEKAMLGYMRFKPYQKRSMKQAKVHPLKLLVQFGEFNVETLAVGEEKEVHSVLRVGDMIEIDRGTRYSIQNAIDKVSVLMCIRS
# chain 2: MSKPQNNDTLELDDILSQPVKDKERFAAFMMRKLAENKPAQNDNLFGNFKLDFDLDFEVPLIKKSQAKPKSKLPEVQPLGELVSKNSAATEKVNEPPVDQAPNENVPPRRSPTLSPNNRRSMRRSGNVPGSDKLRRHAIRRRSRSCGRQLLPEFEETVNLTRSISSPVNFLPEISSTPCTEKQKEEVAKNTTRVETDKPAEKPMELSQEPEPENPLQTKVTSPARNPILAAEIEQICKERQSSFHKNVLQLDYSGRAPYSRPPTPSSPSVAGLRRTYTMEKGPAPGQLLLSPSHRYDTPSKMPVVKAKRFNQELMVPDTPERQSHDPAWQSEPQPEFVVPETQPQDLGELVQTLSRSAISPIVVINTSNSNRSVRRDAVAMKSVPTSPVTALSSPPIAPSPRRSAAASPQKSIAQLPRVEENMDAIMTDDESDEHPSTVPLNLAPSGGNTTRQRRLRSSNRARATIESQESSMRLLNLHKSVNAKKSKPRKTAIPLNKAPSAPINGEQFARELTRMSNYEILDLRKRNSLNEIYPLNGHRNHRSEKLILEEEIQRELLRRNLMDEAEGLPKQQSSDDSNEDYIPVPPKTQSLRTKSNDRSQGRGRPRSTRRDLPMTTELVNYLGLSQTLETRRKSSKDGKRCLYTKGSSDHEDNDSLSPVKLPRLSKSIQIVPPPPVSLRYSQSLQNLPCSGKFDFDNVVMAAPPDFHDSVNSDAIEIAPPPPEYVVNTRGRSTSGRKSNKNDLVLPPPGYEGGQEEEHDERPSQPRCTAKELQQSTQNGRRAMENELVPPPIEYVEEENRNNEQSRRSTKNGNLVDRNTHNAVEYCEPPEPPEYDDSDHGQASILRRSGKKLQHSKQSVQKSNKEQIIAPSYENNEDYDSDEEPIYNEEYGKEESQNKNVTRRKSDKDEMASHTLECIEGPDPNWNSSCNKQNRNHQNASKSKENDKLANRSSKSQKLSNPRQNAVGTEKSVALSNRGEECTEKSSDVMESLRVNTPTPPIDQNSDDVPSRNPSPSRTLLSDDVPSTSRAALEFLQRSQNMSKSRPPDESSADVVFKKPLAPAPRAKSKKGKSEVDKLKLAKMPVEAEELNTTGIRRSKRGQVPLQMSWCHTMDPSKFNFMSGFIEPRSKNSKTKKGNLSKAKKASATKPKPTVEKNLPDNRGPLCSSTPRISEKLPGAIPHSESLGLSTLTWEETEVQAEAEKVPKKRGRPKKAVGGVQTDTEAEPEPEPEPMISSVAPLTSDQEEPDVPDEQAPYTEAALGPVVFSTPLRDEQEEASTKLMQWLRGVGDAPPSASMSDENASVSSANELIFCQVDGIDYAFYNTKEKAMLGYMRFKPYQKRSMKQAKVHPLKLLVQFGEFNVETLAVGEEKEVHSVLRVGDMIEIDRGTRYSIQNAIDKVSVLMCIRS
# B2: HA-dCENP-C(1264-1411) [Drosophila melanogaster] / CAL1-GFP-LacI [Drosophila melanogaster] (parent)
# chain 1: B1 chain 1
# chain 2: MANAVVDEETLEAMVYERSKAWSSKMADFASLEDGMEIDVAEFDNLFHGEDEDPDLDDVAKEAVEDNVPDEAKLEMGHINATSVTELTLILCANEDNEAKAEIEEILNQTVPVVEEHKRKWREAGLDRILDTFDEKQIEHHVGRWMRRHNSVYLEASPPKYLPPHHNSISDESDESMHSIDTARYIQQSRRRNAHMTNKNMTTIKMYRKHSHKRDELRAKYAYGDEQEHRHHMQAVLLRRRERERQLAYLASTPMQCVYSSGHHMRRKNLRKRRINSWMFDSASSSEEDTSFGGCDCHSCRRHYALSRSVYQSCPYGRGQREYHHRQMASRTMHTMRRQHTFDMEMDLRPRLPENECSCCNSDRLCSNVIHIANSSTEEWVVENRSNHLTQETQEKTRKQKHQPMDARKVSHQPVCSKGHEQKPLSSKATSVSKLVLSKEKYMQMFDSESSDEDNALAKKGLLCCSDKKKGMTFPTPNAAGKITHPTSSAKKAIRKEARPNGLAQIQEEGPTATNSPIESTYLPVAHMKSVSIDGSSGTSATFESPAKKAPKRGIRETSPLNGNELQQLISTIPIADEKASSLMEKVDNCIGRESFDDRNKDFMHMENSSTKTAVEKSTKQKRVSGKKSEIPKSIITNNEILEKNSTETLSEKQVAAKAKKQSVRKTGATGKPSTSRLKKSEKTKTTSSVTSTSKLEQVREEESDVSSEVLAKPKPQCSTTASILKQGGDGASNSEDDLQIALAMSKATYKEEQQKRKKTKREPSNKQPQSPAEKSMTVFNNQSVACNSTALANDTACYRVLPKRRGVKRAAAVSTTEEKTATNSSSSPTSSLEEMGSPTGGDPDCTVVTSTTGCEPPASERQEIPATIKITKRGILLHSPSAPEGASFTLTEQGLGKIIGERWARKYLKYHIGSRSFDSRHSVYYQPTPQLAAALSAPQDAQNIGNISGSSASDDDIFEQINRYGTVYSILENNSGDK
# Variants of: B1
# Assay: LacO-tethering recruitment assay (HA immunofluorescence intensity at LacO)
# Conditions: with GFP-LacI-dCENP-C [Drosophila melanogaster]; parent: 1.6; read off a plot
row,response (normalized to GFP),Variant
1,-0.05,chain 1 L94E L143E

# Variants of: B2
# Assay: as above
# Conditions: with CAL1-GFP-LacI [Drosophila melanogaster]; parent: 0.68; read off a plot
row,response (normalized to GFP),Variant
1,0.12,chain 1 L94E L143E
